Assay results as given in publication PMC3410656 (Nature structural & molecular biology, 2011).

Molecular target: blocked SNARE[change] (SNARE[change] with CPXcen residues 48-134 pre-bound) ( | rat | human, UniProt P63027;P32851;P60880-2;O14810)
Test: ITC

B1: wild-type complexin fragment wtCPX (hCPX1 residues 26-83) (domain or fragment)
chain: KDPDAAKKEEERQEALRQAEEERKAKYAKMEAEREAVRQGIRDKYGIKKKEEREAEAQ
B1 showed a Kd of roughly 10 µM.
